The record followed here is patent US20220119534A1 (DRAGONFLY THERAPEUTICS, published 2022).

“And” between values parts separate entries of the source, which are not always exact repeats. Equal entries are not always repeated.

Assay [1] addresses T1, mFc-hNKG2D (human, UniProt P26718 73-216).
T1 construct: extracellular domain; Made in house (Dragonfly Tx); the order of tag and ECD follows the name mFc-hNKG2D; also called mFc-tagged human NKG2D; not shown: mouse Fc tag
T1 sequence (looked up): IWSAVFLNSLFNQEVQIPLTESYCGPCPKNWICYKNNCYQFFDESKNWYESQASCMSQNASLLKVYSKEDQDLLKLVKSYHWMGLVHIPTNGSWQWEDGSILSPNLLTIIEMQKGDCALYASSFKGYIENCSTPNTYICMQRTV
As to the kind of experiment: SPR Biacore 8K 37 C; mFc-hNKG2D captured on anti-mFc chip, TriNKET as analyte; 1:1 kinetic fit; control, n=3. A general note: Surface plasmon resonance follows binding to a sensor surface in real time, without labels.

Assay [2] deals with T2, Human CLEC12A-His (human, UniProt Q5QGZ9 65-265).
T2 construct: Recombinant soluble protein made in house (Dragonfly Tx); The hCLEC12A spot of the HuProt array is written under this molecule as well; also called hCLEC12A-His; hCLEC12A; not shown: His tag
T2 sequence: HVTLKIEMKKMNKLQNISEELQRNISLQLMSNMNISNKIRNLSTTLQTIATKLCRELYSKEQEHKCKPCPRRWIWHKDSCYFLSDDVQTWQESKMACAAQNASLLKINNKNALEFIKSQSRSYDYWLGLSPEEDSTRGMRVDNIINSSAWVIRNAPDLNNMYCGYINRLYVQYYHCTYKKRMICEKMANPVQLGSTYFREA
The assay can be described thus: SPR Biacore 8K 37 C; TriNKET captured on anti-hFc chip, hCLEC12A-His as analyte; 1:1 fit; after low pH hold (pH 3.3, 1.5 h), n=4.

The target in assay [3] is T3, human CLEC12A on cells (HL60, PL21, Ba/F3-hCLEC12A) (human, UniProt Q5QGZ9 1-265).
T3 construct: Endogenous on the AML lines HL60 and PL21; brought into mouse Ba/F3 cells by retroviral transduction; The cell line stands under assay; also called CLL-1
T3 sequence: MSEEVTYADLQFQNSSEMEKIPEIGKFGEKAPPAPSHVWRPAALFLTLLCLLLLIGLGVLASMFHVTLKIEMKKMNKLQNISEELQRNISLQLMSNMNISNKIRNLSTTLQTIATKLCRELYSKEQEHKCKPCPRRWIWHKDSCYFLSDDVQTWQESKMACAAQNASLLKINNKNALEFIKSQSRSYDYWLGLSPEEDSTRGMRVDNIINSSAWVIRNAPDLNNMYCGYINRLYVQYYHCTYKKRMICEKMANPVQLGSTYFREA
As to the kind of experiment: flow cytometry, 40 nM, MFI after 2 h 37 C relative to 2 h on ice, PL21 cells.

Assay [4] deals with T4, Human CLEC12A-His (human, UniProt Q5QGZ9 65-265).
T4 construct: Recombinant soluble protein made in house; also called hCLEC12A-His; hCLEC12A; not shown: His tag
T4 sequence: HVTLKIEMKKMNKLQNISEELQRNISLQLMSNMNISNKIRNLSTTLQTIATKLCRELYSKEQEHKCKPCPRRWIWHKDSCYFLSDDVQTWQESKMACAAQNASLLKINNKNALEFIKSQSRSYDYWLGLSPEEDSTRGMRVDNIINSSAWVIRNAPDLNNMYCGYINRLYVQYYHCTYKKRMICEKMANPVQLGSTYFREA
The assay can be described thus: SPR; control sample (CST pH 7.0 study).

Assay [5] addresses T5, Human CD16a V158 (human, UniProt P08637 17-208, biotinylated).
T5 construct: Bought recombinant receptor; also called hCD16a (V158); hFcγRIIIa V158
The assay can be described thus: SPR; control sample (CST pH 7.0 study).

The target of assay [6] is T6, mFc-hNKG2D (human, UniProt P26718 73-216).
T6 construct: extracellular domain; Recombinant mFc-tagged NKG2D dimer, made in house; also called human NKG2D; not shown: mouse Fc tag
T6 sequence (looked up): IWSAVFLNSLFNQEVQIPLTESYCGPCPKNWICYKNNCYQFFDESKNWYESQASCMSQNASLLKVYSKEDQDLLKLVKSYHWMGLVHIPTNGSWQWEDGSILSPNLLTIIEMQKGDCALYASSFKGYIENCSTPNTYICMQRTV
The assay can be described thus: SPR; control sample (CST pH 7.0 study).

The target of assay [7] is T7, recombinant human CLEC12A-His (human, UniProt Q5QGZ9 65-265).
T7 construct: also called hCLEC12A-His; hCLEC12A
T7 sequence: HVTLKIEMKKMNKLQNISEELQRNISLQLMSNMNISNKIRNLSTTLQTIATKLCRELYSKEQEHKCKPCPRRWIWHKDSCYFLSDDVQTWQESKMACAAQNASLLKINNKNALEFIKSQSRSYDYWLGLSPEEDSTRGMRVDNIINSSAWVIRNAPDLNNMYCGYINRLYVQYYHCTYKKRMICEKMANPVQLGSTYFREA
The assay can be described thus: SPR 37C.

Assay [8] deals with T8, BCMA.
T8 chain: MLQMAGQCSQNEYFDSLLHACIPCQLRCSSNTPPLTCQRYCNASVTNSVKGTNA
As to the kind of experiment: SPR specificity test; unrelated recombinant antigen at up to 500 nM.

For assay [9], the target named is T9, CD33.
T9 construct: recombinant protein
The assay is described as above.

The target in assay [10] is T10, recombinant cynomolgus FcRn (cynomolgus monkey, UniProt Q8SPV9 24-297; Q8SPW0 21-119).
T10 construct: also called cFcRn; cyno FcRn
T10 sequence (Q8SPV9 24-297 limits assumed, chain 1 of 2): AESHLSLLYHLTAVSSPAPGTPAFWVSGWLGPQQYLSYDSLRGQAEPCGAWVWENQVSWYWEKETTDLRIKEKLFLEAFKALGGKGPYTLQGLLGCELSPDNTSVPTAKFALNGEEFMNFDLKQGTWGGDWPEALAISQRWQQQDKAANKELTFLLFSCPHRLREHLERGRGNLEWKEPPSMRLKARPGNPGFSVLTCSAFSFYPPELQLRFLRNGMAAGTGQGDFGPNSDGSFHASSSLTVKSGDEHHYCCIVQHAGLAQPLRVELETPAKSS
T10 sequence (Q8SPW0 21-119 limits assumed, chain 2 of 2): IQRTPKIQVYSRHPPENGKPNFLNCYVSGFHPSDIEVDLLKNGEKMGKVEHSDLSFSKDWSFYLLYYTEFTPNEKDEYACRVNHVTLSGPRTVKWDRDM
As to the kind of experiment: SPR 25C, pH 6.0, steady state; pH 6.0; first replicate.

T5 sequence (P08637 17-208 F176V limits assumed): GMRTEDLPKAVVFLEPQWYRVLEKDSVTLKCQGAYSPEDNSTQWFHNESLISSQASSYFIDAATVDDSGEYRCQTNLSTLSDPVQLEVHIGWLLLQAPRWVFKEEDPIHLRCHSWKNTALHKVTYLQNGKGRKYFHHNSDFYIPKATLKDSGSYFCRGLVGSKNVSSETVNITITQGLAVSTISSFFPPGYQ

B1: F3'-1602 TriNKET (bispecific antibody, human IgG1, kappa)
chain: QLQLQESGPGLVKPSETLSLTCTVSGFSLTNYGLHWIRQPPGKCLEWIGVIWSGGKTDYNPSLKSRVTISKDTSKNQFSLKLSSVQAADTAVYYCAKYDYDDSLDYWGQGTLVTVSSGGGGSGGGGSGGGGSGGGGSDIQMTQSPSSLSASVGDRVTITCHASQNINFWLSWYQQKPGKAPKLLIYEASNLHTGVPSRFSGSGSGTRFTLTISSLQPEDIATYYCQQSHSYPLTFGCGTKLEIKGSDKTHTCPPCPAPELLGGPSVFLFPPKPKDTLMISRTPEVTCVVVDVSHEDPEVKFNWYVDGVEVHNAKTKPREEQYNSTYRVVSVLTVLHQDWLNGKEYKCKVSNKALPAPIEKTISKAKGQPREPRVYTLPPCRDELTKNQVSLTCLVKGFYPSDIAVEWESNGQPENNYKTTPPVLVSDGSFTLYSKLTVDKSRWQQGNVFSCSVMHEALHNHYTQKSLSLSPG
heavy: EVQLVESGGGLVKPGGSLRLSCAASGFTFSSYSMNWVRQAPGKGLEWVSSISSSSSYIYYADSVKGRFTISRDNAKNSLYLQMNSLRAEDTAVYYCARGAPIGAAAGWFDPWGQGTLVTVSSASTKGPSVFPLAPSSKSTSGGTAALGCLVKDYFPEPVTVSWNSGALTSGVHTFPAVLQSSGLYSLSSVVTVPSSSLGTQTYICNVNHKPSNTKVDKKVEPKSCDKTHTCPPCPAPELLGGPSVFLFPPKPKDTLMISRTPEVTCVVVDVSHEDPEVKFNWYVDGVEVHNAKTKPREEQYNSTYRVVSVLTVLHQDWLNGKEYKCKVSNKALPAPIEKTISKAKGQPREPQVCTLPPSRDELTENQVSLTCLVKGFYPSDIAVEWESNGQPENNYKTTPPVLDSDGSFFLYSWLTVDKSRWQQGNVFSCSVMHEALHNHYTQKSLSLSPG
light: DIQMTQSPSSVSASVGDRVTITCRASQGISSWLAWYQQKPGKAPKLLIYAASSLQSGVPSRFSGSGSGTDFTLTISSLQPEDFATYYCQQGVSFPRTFGGGTKVEIKRTVAAPSVFIFPPSDEQLKSGTASVVCLLNNFYPREAKVQWKVDNALQSGNSQESVTEQDSKDSTYSLSSTLTLSKADYEKHKVYACEVTHQGLSSPVTKSFNRGEC
notes: Trispecific F3' format: CLEC12A scFv-Fc paired with NKG2D Fab-Fc; Stressed and control samples of the stability studies are the same molecule; also called AB0237
On to B1, for which, in assay [1], the dissociation constant (Kd) (as a rule, a measure of binding affinity in units of concentration) was determined as 714 nM; the koff (commonly the rate constant with which the complex falls apart) was found to be 0.146 s⁻¹; the kon (commonly the second-order rate constant of association) is 206000 M⁻¹ s⁻¹. In [2], this molecule returned a Kd of 0.644 nM and a kon of 715000 M⁻¹ s⁻¹.

B2: AB0192 TriNKET (other)
chain: EVQLVESGGGVVQPGGSLRLSCAASGFTFNAFGMHWVRQAPGKCLEWVAFISSGSTSIYYANTVKGRFTISRDNSKNTLYLQMNSLRAEDTAVYYCARDGYPTGGAMDYWGQGTSVTVSSGGGGSGGGGSGGGGSGGGGSDIQMTQSPSSLSASVGDRVTITCKASQDIYNYLSWFQQKPGKAPKPLIYRANILVSGVPSRFSGSGSGQDYTFTISSLQPEDIATYYCLQFDAFPFTFGCGTKLEIKGSDKTHTCPPCPAPELLGGPSVFLFPPKPKDTLMISRTPEVTCVVVDVSHEDPEVKFNWYVDGVEVHNAKTKPREEQYNSTYRVVSVLTVLHQDWLNGKEYKCKVSNKALPAPIEKTISKAKGQPREPRVYTLPPCRDELTKNQVSLTCLVKGFYPSDIAVEWESNGQPENNYKTTPPVLVSDGSFTLYSKLTVDKSRWQQGNVFSCSVMHEALHNHYTQKSLSLSPG
heavy: EVQLVESGGGLVKPGGSLRLSCAASGFTFSSYSMNWVRQAPGKGLEWVSSISSSSSYIYYADSVKGRFTISRDNAKNSLYLQMNSLRAEDTAVYYCARGAPIGAAAGWFDPWGQGTLVTVSSASTKGPSVFPLAPSSKSTSGGTAALGCLVKDYFPEPVTVSWNSGALTSGVHTFPAVLQSSGLYSLSSVVTVPSSSLGTQTYICNVNHKPSNTKVDKKVEPKSCDKTHTCPPCPAPELLGGPSVFLFPPKPKDTLMISRTPEVTCVVVDVSHEDPEVKFNWYVDGVEVHNAKTKPREEQYNSTYRVVSVLTVLHQDWLNGKEYKCKVSNKALPAPIEKTISKAKGQPREPQVCTLPPSRDELTENQVSLTCLVKGFYPSDIAVEWESNGQPENNYKTTPPVLDSDGSFFLYSWLTVDKSRWQQGNVFSCSVMHEALHNHYTQKSLSLSPG
light: DIQMTQSPSSVSASVGDRVTITCRASQGISSWLAWYQQKPGKAPKLLIYAASSLQSGVPSRFSGSGSGTDFTLTISSLQPEDFATYYCQQGVSFPRTFGGGTKVEIKRTVAAPSVFIFPPSDEQLKSGTASVVCLLNNFYPREAKVQWKVDNALQSGNSQESVTEQDSKDSTYSLSSTLTLSKADYEKHKVYACEVTHQGLSSPVTKSFNRGEC
notes: the condition stands under assay; also called AB0192 Lot AB0192-005
With B2, in [3], the percent surface retention stood at 101%. For the same molecule, in assay [4], the Kd came to 1.81 nM, the off-rate (koff) was determined as 0.0014 s⁻¹ and the kon was determined as 776000 M⁻¹ s⁻¹. For the same molecule, in [5], the equilibrium dissociation constant (Kd) is 171 nM, the koff stood at 0.0199 s⁻¹ and the kon came to 117000 M⁻¹ s⁻¹. Also, in assay [6], the equilibrium dissociation constant (Kd) is 588 nM, the koff is 0.122 s⁻¹ and the kon turned out to be 208000 M⁻¹ s⁻¹.

B3: F3'-1602 TriNKET (other)
chain: QLQLQESGPGLVKPSETLSLTCTVSGFSLTNYGLHWIRQPPGKCLEWIGVIWSGGKTDYNPSLKSRVTISKDTSKNQFSLKLSSVQAADTAVYYCAKYDYDDSLDYWGQGTLVTVSSGGGGSGGGGSGGGGSGGGGSDIQMTQSPSSLSASVGDRVTITCHASQNINFWLSWYQQKPGKAPKLLIYEASNLHTGVPSRFSGSGSGTRFTLTISSLQPEDIATYYCQQSHSYPLTFGCGTKLEIKGSDKTHTCPPCPAPELLGGPSVFLFPPKPKDTLMISRTPEVTCVVVDVSHEDPEVKFNWYVDGVEVHNAKTKPREEQYNSTYRVVSVLTVLHQDWLNGKEYKCKVSNKALPAPIEKTISKAKGQPREPRVYTLPPCRDELTKNQVSLTCLVKGFYPSDIAVEWESNGQPENNYKTTPPVLVSDGSFTLYSKLTVDKSRWQQGNVFSCSVMHEALHNHYTQKSLSLSPG
heavy: EVQLVESGGGLVKPGGSLRLSCAASGFTFSSYSMNWVRQAPGKGLEWVSSISSSSSYIYYADSVKGRFTISRDNAKNSLYLQMNSLRAEDTAVYYCARGAPIGAAAGWFDPWGQGTLVTVSSASTKGPSVFPLAPSSKSTSGGTAALGCLVKDYFPEPVTVSWNSGALTSGVHTFPAVLQSSGLYSLSSVVTVPSSSLGTQTYICNVNHKPSNTKVDKKVEPKSCDKTHTCPPCPAPELLGGPSVFLFPPKPKDTLMISRTPEVTCVVVDVSHEDPEVKFNWYVDGVEVHNAKTKPREEQYNSTYRVVSVLTVLHQDWLNGKEYKCKVSNKALPAPIEKTISKAKGQPREPQVCTLPPSRDELTENQVSLTCLVKGFYPSDIAVEWESNGQPENNYKTTPPVLDSDGSFFLYSWLTVDKSRWQQGNVFSCSVMHEALHNHYTQKSLSLSPG
light: DIQMTQSPSSVSASVGDRVTITCRASQGISSWLAWYQQKPGKAPKLLIYAASSLQSGVPSRFSGSGSGTDFTLTISSLQPEDFATYYCQQGVSFPRTFGGGTKVEIKRTVAAPSVFIFPPSDEQLKSGTASVVCLLNNFYPREAKVQWKVDNALQSGNSQESVTEQDSKDSTYSLSSTLTLSKADYEKHKVYACEVTHQGLSSPVTKSFNRGEC
notes: CLEC12A scFv-Fc, NKG2D A49MI Fab-Fc, human IgG1 Fc; also called AB0237
For the molecule B3, in assay [7], the Kd was 0.58 nM and 0.59 nM and 0.57 nM and 0.6 nM; the koff is 0.000494 s⁻¹ and 0.000489 s⁻¹ and 0.000499 s⁻¹; the association rate constant (kon) was 854000 M⁻¹ s⁻¹ and 833000 M⁻¹ s⁻¹ and 863000 M⁻¹ s⁻¹ and 826000 M⁻¹ s⁻¹. Further, the “Response (RU)” value in assay [8] is 0.2 RU. The “Response (RU)” value in assay [9] stood at 0.2 RU. Moreover, the equilibrium dissociation constant (Kd) in assay [10] was 1100 nM.
